Legend:
[1] = target: T1, HER2 protein (R&D Systems, Inc., Catalog No. 1129-ER) (UniProt P04626 23-652); assay: SPR, Biacore T200; reference is the wild-type anti-HER2 antibody
T1 construct: Bought reagent
Description: (§1) The affinity of the prepared variants was measured using Biacore (registered trademark) T200 (GE Healthcare). […] Antigen was immobilized (immobilization: 50 RU) to a sensor chip for Biacore (registered trademark) Series S Sensor Chip CMS (GE Healthcare). The antibody solution was diluted to prepare antibody solutions of 30 nM, 15 nM, 7.5 nM, 3.75 nM and […]. The antibody solutions at each concentration were delivered to Biacore (registered trademark) T200 (GE Healthcare) (association time of 120 seconds and dissociation time of 1800 seconds). Measurement data was analyzed using Biacore (registered trademark) Evaluation software, and the data on the affinity of each antibody was obtained.
(§2) In the measurement, TSH protein (R&D Systems, Inc.) was used as an antigen of the anti-TSH antibody, and HER2 protein (R&D Systems, Inc., Catalog No. 1129-ER) was used as an antigen of the anti-HER2 antibody.

[2] = target: T1, HER2 protein (R&D Systems, Inc., …); assay: SPR, Biacore T200; antigen immobilised, antibody as analyte
Description: as §1, §2

Ratio (Kd against wild-type = 1) [1]: 2.71 | Kd [2]: 0.0219 nM
B1: 76, 77, 81 variant (Arg) of the humanized anti-HER2 antibody (antibody, V domains shown)
VH: not shown
VL: DIQMTQSPSSLSASVGDRVTITCRASQDVNTAVAWYQQKPGKAPKLLIYSASFLYSGVPSRFSGSRSGTDFTLTIRRLQPRDFATYYCQQHYTTPPTFGQGTKVEIKR

Reference: patent US20210230304A1 (SYSMEX, published 2021)
